Test: soluble on expression in E. coli; label from the status in PepcDB or PDB records

| Sequence | soluble on expression in E. coli |
| --- | --- |
| MAHRPRWTLSQVTELFEKPLLDLLFEAQQVHRQHFDPRQVQVSTLLSIKTGACPEDCKYCPQSSRYKTGLEAERLMEVEQVLESARKAKAAGSTRFCMGAAWKNPHERDMPYLEQMVQGVKAMGLEACMTLGTLSESQAQRLANAGLDYYNHNLDTSPEFYGNIITTRTYQERLDTLEKVRDAGIKVCSGGIVGLGETVKDRAGLLLQLANLPTPPESVPINMLVKVKGTPLADNDDVDAFDFIRTIAVARIMMPTSYVRLSAGREQMNEQTQAMCFMAGANSIFYGCKLLTTPNPEEDKDLQLFRKLGLNPQQTAVLAGDNEQQQRLEQALMTPDTDEYYNAAALLEHHHHHH | not soluble |
| MGSDKIHHHHHHMHVVELRFECFDNTTITAAERAINGLLEAYRANGQVLGREFAVAFNEGEFRVRLLLPEKSSLAKRFNSPWVNYALEELTQAKLLHPREKYIGQDINSEVSSTETPSWQLLYTSYVHMCSPLRNGDTLQPIPLYQIPATFNGDHKRVIKWQTEWQACDELQMAAATKAEFAALDELSQCDSDLFRRGWDLRGRIEYLTKIPTYYYLYRVGGESLAAEQQRPCPRCGNTHWLLETPLLDLFHFRCDNCRIVSNISWDHL | not soluble |
| LPKPGVYYFPWEVSDGHVPEGSTLRTFGRLYLYDMARSLMTLAAPQKPDQCQLLVCTNLVEPFEAHVNFLYMVLGDLERMEGGAFVVRARLLTCVEGMDLSLLEKAILEQRRHLQKRQQPIGDASTLQTPTPAPQSIPSD | not soluble |
| MTKKYLTFDCYGTLINTEPLYQWVANLGLAVGLDPLTVRKAYATYEDDPASVNPYLDYSTLVRADLKHLDRLFEQRHFFESHYVECLEVQRHLLPYADVIPTLTAWQQLGYQLIIMSNSSWDIMPANIAALKVSFTAVVTAEDIQAYKPALAFFETVQERFKLTADNHWHIARGYESDVVPASAMQWPMIWINRDQRQPTSSERPTHMVTDLAAVKQWVN | not soluble |
| MAGDPMKLQKSNHTILLVLEKGEDIVECITTFADDQDLTFTSVSGIGACDDVVLKFFNLTTKQYEEKHITEPLELTSLLGNISRLDNGHFAHLHATFGTQSYETFSGHLAKAIVSATAEIILTVTDLDIQRSFKDAVGLNLLDPQLEHHHHHH | soluble |
| LPSSPPAEEAIIDWPVALRQSANKEDLAKEMLGMLVDYLREVETVVNTALEDEEYPASDLLHHIHKLHGSCSYSGVPRLRKICASLEQALRNGASIDELEPELFELQDEMAKVLEASRDYLN | not soluble |
| MKSYQPKSLLNDLQYYITPPHDCSYLDNKSARMVFLDPIHRIDVVTLSELSRVGFRRSGDFVYRPECHLCRQCLSCRVPVHDFNMNSLQKKAWKRNQDLRMSIVPTHAATSVHYQLYERYINERHADGDMFPPSLDQFEKFLVHSCTESFFLELWKDDRLICVSTCDLMDDGLSAVYTFFDPDENRRSLGVFAILKQLEYVKSIDLDYLYLGYWVPHSQKMNYKSQYIPLELLLDGQWRRLNRALSQEEISQLGESLMTILPSEWNSMIIKLEHHHHHH | not soluble |
| MSIASVASVFKGEHAVGSTVTVRGWVRTRRDSKAGISFLAVYDGSCFNPIQGVVPNSLENYDNEVLKLTAGCSVIVTGDIVESPGAGQAYELQVTAVEVTGWVEDPDTYPMAAKRHSIEHLRELAHLRPRTNIIGAVARVRNCLSQAIHRFYHENGFVWVSTPLITASDCEGAGEMFRVSTLDMENLPRTSDGKVDYDKDFFGKEAFLTVSGQLNGETYACALSKIYTFGPTFRAENSNTSRHLAEFWMVEPEVAFATLNDIAGLAEGMLKYAFNAVLTERMDDLQFFAQHVDKTVIERLQSFVSSDFAQVDYTDAVEILQKSGREFEFPVSWGIDLSSEHERYLAEEHFKAPVVVKNYPKDIKAFYMRLNEDGKTVAAMDVLAPGIGEIIGGSQREERLDVLDMRLEEMDLNKEDYWWYRDLRRYGTVPHAGFGLGFERLVSYVTGVSNIRDVIPFPRAPRTANFLEHHHHHH | soluble |
| MGSDKIHHHHHHMVVIISAHNIATLEYQPMPKISDSGEPVEGVQAVALTLKILEALANARSTVGVTELSKQIGAGKARVYRHLQTLVTLGYALKDEESERYSTGPQLLRLSHTLSYRLDVVEAARLPARKLSDATGLTAVVARVEGDAIVVVHAEYSRADTMRSPRIGTTMQFHYTALGKIALAFGPAELRSRVLNEPLEQLTAYTITDRRDLMKKLEKIQELGWASSANEGMVGFNALAAPITDAHERLVGMICVVGSIKQLPATPPQNYLDALLSTADDISAYFGHVSRMPS | not soluble |

— the DeepSol protein solubility set
